No end group written: not given here. FAM = carboxyfluorescein
Assays:
Settings in all cases: both partners purified
purified HDM2 (1–125) [1] = target: T1, purified HDM2 (1–125) (human, UniProt Q00987 1-125); assay: pull-down; biotinylated peptides (10 µg) on streptavidin Dynabeads M-280, incubated with purified HDM2 (1–125) (15 µM) or TCTP (15 or 30 µM) 4 h at 4°C; Western blot; repeated with DMSO or Nutlin-3 (2/20/200 µM)
T1 construct: source: expressed as GST fusion (pGEX-6P-1), purified (GSTrap, on-column cleavage with precission protease, monoS)

purified HDM2 (1–125) [2] = target: T1, purified HDM2 (1–125); assay: fluorescence polarisation; competition: 50 nM FAM-12-1 peptide, 250 nM HDM2 (1–125), competitors TH2/TH3 (50/200/600 µM), control peptide (600 µM), Nutlin-3 (200 µM), p53 peptide; PBS-0.005% Tween-20
[3] = target: T2, recombinant full-length TCTP, purified (human (cDNA from AGS cells), UniProt P13693 1-172); assay: pull-down; biotinylated peptides (10 µg) on streptavidin Dynabeads M-280, incubated with purified HDM2 (1–125) (15 µM) or TCTP (15 or 30 µM) 4 h at 4°C; Western blot; repeated with DMSO or Nutlin-3 (2/20/200 µM)
T2 construct: TCTP, called recombinant full-length TCTP; also called recombinant TCTP; TCTP protein; source: expressed as GST fusion (pGEX-6P-1), purified (GSTrap, on-column cleavage with precission protease, monoQ)
T2 sequence (looked up): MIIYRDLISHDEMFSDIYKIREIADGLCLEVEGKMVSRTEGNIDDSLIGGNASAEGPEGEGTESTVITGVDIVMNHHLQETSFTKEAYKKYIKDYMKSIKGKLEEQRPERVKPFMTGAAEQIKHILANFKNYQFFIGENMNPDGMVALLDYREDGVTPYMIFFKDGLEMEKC

[4] = target: T2, recombinant full-length TCTP, purified; assay: pull-down; cobalt beads coated with 20 µM his-tagged HDM2 (17–125), 4 h at 4°C with 7 µM TCTP protein, with or without 200 µM Nutlin-3; Western blot

B1: TH2 peptide (TCTP residues 81–110) (peptide)
peptide: GGGSTSFTKEAYKKYIKDYMKSIKGKLEEQRPER
modifications: also: biotin, position not given here
notes: spacer at the N-terminus; TCTP residues 81-110; source: synthetic peptide (Mimotopes)
binding result (purified HDM2 (1–125) [1]): binds

B2: carboxyfluorescein (FAM) labeled 12-1 peptide (peptide)
peptide: {FAM}-RFMDYWEGL-NH2
notes: also called FAM-labeled p53 peptide (12.1); fluorescently labelled p53 peptide
binding result (purified HDM2 (1–125) [2]): binds

B3: HDM2 α2 helix peptide (residues 43–65) (peptide)
peptide: GGGSAQKDTYTMKEVLFYLGQYIMTKR
modifications: biotin (position not given)
notes: spacer at the N-terminus; HDM2 α2 helix, residues 43-65; source: synthetic peptide (Mimotopes)
binding result [3]: binds

B4: TH3 peptide (TCTP residues 107–133) (peptide)
peptide: GGGSRPERVKPFMTGAAEQIKHILANFKNYQ
modifications: also: biotin, position not given here
notes: spacer at the N-terminus; source: synthetic peptide (Mimotopes)
binding result (purified HDM2 (1–125) [1]): binds

B5: recombinant his-tagged HDM2 (residues 17–125) (domain or fragment, human, UniProt Q00987 17-125, looked up)
chain: SQIPASEQETLVRPKPLLLKLLKSVGAQKDTYTMKEVLFYLGQYIMTKRLYDEKQQHIVYCSNDLLGDLFGVPSFSVKEHRKIYTMIYRNLVVVNQQESSDSGTSVSEN
notes: also called recombinant HDM2 N-terminal domain; source: recombinant
binding result [4]: binds
